According to US20140154243A1 (Amgen, published 2014):
Each block holds one binder with its values, some of them ahead of it.

Experiments:
[1] = target: T1, mouse HGF (mouse, UniProt Q08048 33-728); test: FACS bead assay: antibody incubated with the avidin fusion of mouse HGF, captured on biotin-coated beads; FITC anti-avidin (x) against PE goat anti-human F(ab')2 (y)
T1 construct: also called recombinant mouse HGF; mHGF
Protocol: After incubation, the fusion proteins in each sample were separately captured using biotin-coated beads (Spherotech Inc., Libertyville, Ill., Cat # TP-60-5). The resulting bead-protein complexes were labeled by adding FITC labeled anti-avidin antibody (Vector Lab, Burlingame, Calif., Cat. # SP-2040). The presence of antibodies to HGF was determined by adding phycoerythrin (PE) labeled goat anti-human F(ab′)2 antibody (Southern Biotech Associates, Inc, Birmingham, Ala., Cat #2043-09).
Those samples were then subjected to Fluorescence Activated Cell Sorter (FACS) analysis. Bead complexes labeled by FITC (which indicated the presence of avidin) and/or PE (which indicated the presence of antibody to HGF) were detected on a Becton Dickinson Bioscience FACScan (BD, Franklin Lakes, N.J.).

[2] = target: T2, human hepatocyte growth factor (HGF) (human, UniProt P14210 32-728); test: neutralization ELISA (left table): inhibition of the binding of soluble Met (2 nM) to plate-coated HGF, detected with biotinylated anti-cMetR antibody and Eu-streptavidin; column head 'IC50 IP (nM)'
T2 construct: Recombinant protein; The mature protein is a heterodimer of the alpha and beta subunits; also called human HGF; full length HGF
T2 sequence (P14210 32-728 limits assumed): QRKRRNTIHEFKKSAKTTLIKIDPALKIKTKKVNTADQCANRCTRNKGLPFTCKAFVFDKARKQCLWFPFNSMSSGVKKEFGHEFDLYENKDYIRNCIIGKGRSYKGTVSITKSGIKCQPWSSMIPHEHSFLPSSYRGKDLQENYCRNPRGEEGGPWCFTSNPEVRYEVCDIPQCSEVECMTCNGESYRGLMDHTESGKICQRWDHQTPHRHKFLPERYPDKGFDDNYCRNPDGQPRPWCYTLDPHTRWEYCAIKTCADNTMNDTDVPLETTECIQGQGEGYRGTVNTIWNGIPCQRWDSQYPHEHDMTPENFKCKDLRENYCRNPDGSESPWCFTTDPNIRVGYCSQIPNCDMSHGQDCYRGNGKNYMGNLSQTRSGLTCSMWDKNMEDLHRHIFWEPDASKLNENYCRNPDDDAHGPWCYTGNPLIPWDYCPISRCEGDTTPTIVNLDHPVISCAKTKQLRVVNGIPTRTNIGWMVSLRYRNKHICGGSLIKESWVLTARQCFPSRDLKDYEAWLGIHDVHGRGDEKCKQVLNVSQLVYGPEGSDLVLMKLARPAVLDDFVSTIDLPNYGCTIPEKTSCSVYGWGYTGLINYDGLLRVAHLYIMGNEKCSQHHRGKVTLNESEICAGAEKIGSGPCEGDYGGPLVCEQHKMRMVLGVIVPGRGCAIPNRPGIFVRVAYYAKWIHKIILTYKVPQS
Protocol: (§1) A neutralization ELISA assay was developed to assess whether the antibodies discussed in Example 6 could interrupt Met-HGF binding. Delphia 96-well plates (Cat#: AAAND-0001, Wallac Inc., Gaithersburg, Md.) were coated with HGF by adding 100 μl of HGF at 6.25 μg/ml per well. The plates were incubated at 37° C. for 1 hour or at 4° C. overnight. The plates were then blocked with 5% BSA (Cat#50-61-00, KPL, Gaithersburg, Md.) in PBS containing 0.1% Tween 20 for 1 hour at room temperature with shaking.
(§2) Test samples were prepared by separately mixing soluble Met (2 nM, 0.256 μg/ml) with different concentrations of a particular antibody to HGF being tested. The concentrations tested were: 667 nM, 223 nM, 74.1 nM, 24.7 nM, 8.2 nM, 2.7 nM, 0.91 nM, 0.30 nM, 0.10 nM, and 0.034 nM. A volume of 100 μl of a test sample was added to each well of the plates. The plates were then incubated at 4° C. overnight and then washed 4 times with PBS containing 0.1% Tween 20. Next, 100 μl per well of Biotinylated anti-cMetR antibody (Cat#: BAF358, R&D Systems Inc., Minneapolis, Minn.) at 2 μg/ml, was added. […] The plates were then incubated for 2 hours with shaking, and were washed 4 times with PBS containing 0.1% Tween 20. Eu-streptavidin (1:1000 dilution in Assay buffer) (Cat#1244-360, Wallac Inc., Gaithersburg, Md.) was added and the plates were shaken at room temperature for 1 hour. The plates were then washed 4 times with PBS containing 0.1% Tween 20. Next, 100 μl of enhancement buffer (Wallac Inc., Cat#: 1244-105, Gaithersburg, Md.) was added. After at least for 5 minutes, the plates were read using Europium method on Victor 2 (1420 Multilabel Counter, Wallac Inc., Gaithersburg, Md.).
(§3) Percent inhibition of Met binding to HGF (i.e. neutralization) was calculated and IC₅₀ values were determined using the 4 parameter fit equation Excelfit, Version 2.0.6, (Microsoft Inc, Seattle, Wash.). In the presence of the antibodies to HGF discussed in Examples 6, Met binding to HGF was neutralized.

[3] = target: T2, human hepatocyte growth factor (HGF); test: neutralization ELISA (right table): inhibition of the binding of soluble Met (2 nM) to plate-coated HGF, detected with biotinylated anti-cMetR antibody and Eu-streptavidin; column head 'IC50 IP (nM)'
Protocol: as §1, §2, §3

T1 sequence (Q08048 33-728 limits assumed): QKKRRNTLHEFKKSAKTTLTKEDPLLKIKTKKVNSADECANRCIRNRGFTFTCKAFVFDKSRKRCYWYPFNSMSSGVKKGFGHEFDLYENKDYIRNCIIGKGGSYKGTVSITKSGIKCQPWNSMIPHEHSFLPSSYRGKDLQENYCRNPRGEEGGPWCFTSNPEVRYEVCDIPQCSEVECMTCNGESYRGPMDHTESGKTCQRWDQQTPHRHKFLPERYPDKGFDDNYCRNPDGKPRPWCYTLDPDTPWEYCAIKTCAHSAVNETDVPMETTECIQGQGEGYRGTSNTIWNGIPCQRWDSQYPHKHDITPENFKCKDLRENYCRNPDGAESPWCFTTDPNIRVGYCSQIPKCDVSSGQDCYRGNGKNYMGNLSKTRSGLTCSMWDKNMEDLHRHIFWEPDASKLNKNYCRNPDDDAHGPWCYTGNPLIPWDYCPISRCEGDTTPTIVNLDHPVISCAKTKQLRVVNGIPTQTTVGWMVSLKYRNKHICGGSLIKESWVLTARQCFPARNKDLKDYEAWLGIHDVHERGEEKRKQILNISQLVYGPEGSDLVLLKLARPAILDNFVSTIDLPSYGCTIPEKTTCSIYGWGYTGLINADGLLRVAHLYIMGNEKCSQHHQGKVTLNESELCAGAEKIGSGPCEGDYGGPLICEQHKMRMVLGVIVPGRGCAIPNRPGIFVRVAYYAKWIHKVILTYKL

binding result [1]: no binding | IC50 [2]: 5.1 nM
B1: antibody 2.4.4 (antibody, human IgG2, kappa, V domains shown)
VH: QVQLKESGPGLVKPSQTLSLTCTVSGGSISSGVYYWSWIRQHPGKGLEWIGYFYYSGNTYHNPSLKSRVTISVDTSKNQFSLKLSSVTAADTAVYYCARDRSGYDHPDAFDIWGQGTMVTVSS
VL: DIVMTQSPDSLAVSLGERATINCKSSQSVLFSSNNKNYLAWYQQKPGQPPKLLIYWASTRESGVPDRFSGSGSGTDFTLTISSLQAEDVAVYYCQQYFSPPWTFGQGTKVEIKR
notes: also called FITC-labeled antibody 2.4.4

binding result [1]: no binding | IC50 [2]: 2.1 nM | IC50 [3]: 0.52 nM
B2: antibody 2.12.1 (antibody, human IgG2, kappa, V domains shown)
VH: QVQLQESGPGLVKPSETLSLTCTVSGGSISIYYWSWIRQPPGKGLEWIGYVYYSGSTNYNPSLKSRVTISVDTSKNQFSLKLNSVTAADTAVYYCARGGYDFWSGYFDYWGQGTLVTVSS
VL: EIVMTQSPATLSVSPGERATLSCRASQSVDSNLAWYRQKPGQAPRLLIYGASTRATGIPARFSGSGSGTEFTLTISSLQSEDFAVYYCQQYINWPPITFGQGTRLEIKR
